Patent US20090214565A1 (BAYLOR RESEARCH INSTITUTE, published 2009)

Molecular target: PBMC-flu supernatant
Assay: cell-based or functional assay

B1: ACO-1 (antibody, V domains shown)
VH: QVQLQQPGAELVKPGASVKLSCKASGYTFTNYWMHWVKQRPGQGLEWIGEINPSHGRTIYNENFKSKATLTVDKSSITAFMQLSSLTSEDSAVYFCARGGLGPAWFAYWGQGTLVTVSA
VL: QIVLTQSPAIMSASPGEKVTLTCSAGSSVDSSYLYWYQQKPGSSPKLWIYSTSNLASGVPARFSGSGSGTSYSLTISSMEAEDAASYFCHQWSSYPFTFGSGTKLEIKR
notes: also called ACO-1 monoclonal antibody; hybridoma ATCC PTA-6557
Q: Which neutralization of PBMC-flu, RG bioassay does the source give for B1 here?
A: > 50%
